No end group written: not given here. *: point of attachment. Dansyl = CN(C)c1cccc2c(S(=O)(=O)*)cccc12

The target of the test is FTase (protein farnesyltransferase) (UniProt P49354).
Regarding Dansyl-TKCTLQ [dansyl-TKCTLQ], the Kd – broadly, a measure of binding affinity in units of concentration – stood at 7 nM.
In the case of Dansyl-TKCVVT [dansyl-TKCVVT] it was 7 nM; in that of Dansyl-TKCSIM [dansyl-TKCSIM], 6 nM.
Consider Dansyl-TKCSFM [dansyl-TKCSFM], for which the affinity, expressed as Kd, was 10 nM.
For Dansyl-TKCLLM [dansyl-TKCLLM] the value was 4.7 nM; for Dansyl-TKCTII [dansyl-TKCTII], 4.2 nM.
Turning to Dansyl-TKCTLA [dansyl-TKCTLA], the Kd came to 4.4 nM.
For Dansyl-TKCSLC (cysteine pairing not given here) [dansyl-TKCSLC] the value was 5 nM; for Dansyl-TKCNLQ [dansyl-TKCNLQ], 8 nM; for Dansyl-TKCYVM [dansyl-TKCYVM], 12 nM.
For Dansyl-TKCNIM [dansyl-TKCNIM] the value was 5 nM.
In the case of Dansyl-TKCKIS [dansyl-TKCKIS] it was 4 nM; in that of Dansyl-TKCTLM [dansyl-TKCTLM], 5.2 nM.
Dansyl-TKCLVM [dansyl-TKCLVM] displayed a Kd of 6 nM.
Take Dansyl-TKCTKF [dansyl-TKCTKF]: binding was put at a Kd of 6 nM.
Dansyl-TKCTMS [dansyl-TKCTMS] yielded a dissociation constant (Kd) of 6 nM.
In the case of Dansyl-TKCCIF (cysteine pairing not given here) [dansyl-TKCCIF] it was 270 nM; in that of Dansyl-TKCVLA [dansyl-TKCVLA], 4.6 nM; in that of Dansyl-TKCLIT [dansyl-TKCLIT], 4.1 nM.
For Dansyl-TKCNLT [dansyl-TKCNLT] the value was 3.7 nM; for Dansyl-TKCCIL (cysteine pairing not given here) [dansyl-TKCCIL], 300 nM; for Dansyl-TKCSLG [dansyl-TKCSLG], 3.4 nM.
In the case of Dansyl-TKCGIM [dansyl-TKCGIM] it was 3.6 nM; in that of Dansyl-TKCITQ [dansyl-TKCITQ], 3.6 nM; in that of Dansyl-TKCIVA [dansyl-TKCIVA], 5 nM.
Consider Dansyl-TKCSVS [dansyl-TKCSVS], for which the Kd is 2.1 nM.
In turn, Dansyl-TKCSLM [dansyl-TKCSLM] displayed a Kd of 8 nM.
Consider Dansyl-TKCYPD [dansyl-TKCYPD], for which the Kd amounted to 3.3 nM.
For Dansyl-TKCSIS [dansyl-TKCSIS] the value was 3.4 nM.
In the case of Dansyl-TKCLTS [dansyl-TKCLTS] it was 5 nM.
In turn, Dansyl-TKCAVQ [dansyl-TKCAVQ] yielded a Kd of 13 nM.
The molecule Dansyl-TKCKIF [dansyl-TKCKIF] returned a Kd of 2.5 nM.
Dansyl-TKCVLH [dansyl-TKCVLH] gave an equilibrium dissociation constant (Kd) of 14 nM.
In turn, Dansyl-TKCRIS [dansyl-TKCRIS] returned a Kd of 12 nM.
In the case of Dansyl-TKCFLS [dansyl-TKCFLS] it was 19 nM.

Values taken from US20170240926 (published 2017).
